For data set [1] the following is noted: conscious dogs, cited from earlier work; for Bioavailability: pilot experiments.
Another data set is described as follows: Euglycemic glucose clamp. It is filed as in vivo, swine. The conditions noted are these: 20 IU RHI.
The nature of data set [2]: Pharmacokinetics of RHI in anesthetized swine. It is filed as in vivo. To be noted: 20 IU RHI, mean ± SEM; for Cmax (peak serum concentration), Non-transformed / Tmax (time to peak serum concentration): non-compartmental.
Where [3] appears, read: Subcutaneous, natural logarithmic scale, n = 9.

Several values for one entry are separate records, joined by “and”; a condition that tells them apart may be missing. Equal entries are not always repeated. Where two headings read alike, the source gives them in different places.

As for human immunoglobulin G [human IgG], in data set [1] (oral ODP vs subcutaneous), the “Cmax after oral than after subcutaneous administration” value is listed as “higher” and the “Tmax after oral than after subcutaneous administration” value was “shorter”. Further, in data set [1] (oral delivery by the ODP), the Bioavailability is on record as 60%. Moreover, the Bioavailability in data set [1] (subcutaneous injections) was 50%.
For the substance recombinant human insulin [RHI], the “Biological activity of RHI delivered by the ODP (increased demand for glucose delivery to maintain the euglycemic clamp)” value in the data set “Euglycemic glucose clamp” (ODP (jejunal wall), anesthetized swine) is given as “confirmed”. Further, the “Mean AUClast of glucose infusion rates” value in the data set “Euglycemic glucose clamp” (Subcutaneous, euglycemic clamp, swine, 0-420 min, mean ± SEM, n = 9) is on record as 106 ± 10 g/min^2. Also, the “Cmax (peak serum concentration), Non-transformed” value in data set [2] (Intrajejunal wall (ODP), n = 8) worked out at 0.517 ± 0.109 nM; in data set [2] (Subcutaneous, n = 9), 0.342 ± 0.05 nM. For the same substance, the “Tmax (time to peak serum concentration)” value in data set [2] (Intrajejunal wall (ODP), n = 8) is 2.32 ± 0.65 h and 2.32 ± 0.7 h; in data set [2] (Subcutaneous, n = 9), 4 ± 0.517 h and 3.78 ± 0.4 h. The “Area under the insulin concentration curve” value was found to be 83 ± 18 nmol/L/min in data set [2] (ODP (jejunal wall), n = 8 (abstract)) and 81 ± 10 nmol/L/min in data set [2] (Subcutaneous, n = 9 (abstract)). Also, in data set [2] (setting [3]), the “AUClast, Log-transformed” value was 2178 ± 49 pmol/L·min. For the same substance, the “Cmax, Log-transformed” value in data set [2] (setting [3]) was 5.74 ± 0.17 pmol/L.

(Values after article PMC6775958 (Pharmacology Research & Perspectives, 2019).)
